Source: patent US20220146515A1 (XIAMEN INNODX BIOTECH, published 2022)

Key:
[1] = biological target: T1, AMH3647-19 (Dog sequence) (Dog); assay: competition ELISA, AMH-coated plate
T1 peptide: GLLFQPDWDWPP
Protocol: (§1) 1. AMH antigen was diluted with carbonic acid buffer (20 mmol/L CB, pH 9.6) and then coated on a polyvinyl chloride plate. In the pretreatment, the antibody purified by the protein A column and the synthesized short peptides with different human AMH36-47 amino acid mutations (see Table 6 for each synthesized sequence) were subjected to proportion incubation (100 ng/ml antibody: 50 ug/ml truncated antigen) for 30 minutes, that were test samples; the control sample was (100 ng/ml antibody: PBS) and incubated for 30 minutes, and then the test samples after incubation and the control sample were added to AMH antigen plate and incubated for 30 minutes, the plate was washed for 5 times, added with GAM-HRP (1/5000 dilution) and incubated for 30 minutes, the plate was washed for 5 times, and the substrate was added and incubated for 15 minutes. The values under wavelength of 450/620 were read by microplate reader, and the detected OD values were finally calculated and analyzed. The calculation formula was: (control sample OD value−test sample OD value)/control sample OD value, and the criterion for determination was as follows: 90% or more, which represented that there was cross-reaction.

[2] = biological target: T2, AMH3647-22 (Mouse sequence) (Mouse); assay: competition ELISA, AMH-coated plate
T2 peptide: GLIFLEDELWPP
Protocol: as §1

[3] = biological target: T3, AMH3647-23 (Cattle sequence) (Cattle); assay: competition ELISA, AMH-coated plate
T3 peptide: ALIFQQAWDWPL
Protocol: as §1

[4] = biological target: T4, AMH3647-25 (Horse sequence) (Horse); assay: competition ELISA, AMH-coated plate
T4 peptide: GLIFHQDWDWPP
Protocol: as §1

[5] = biological target: T5, AMH truncated antigen 31-44 (human); assay: competition ELISA, antibody preincubated with target, AMH-coated plate
T5 sequence (peptide): AVGTSGLIFREDLD

[6] = biological target: T6, AMH truncated antigen 36-44 (human); assay: as above
T6 sequence (peptide): GLIFREDLD

[7] = biological target: T7, AMH truncated antigen 37-43 (human); assay: as above
T7 sequence (peptide): LIFREDL

[8] = biological target: T8, AMH truncated antigen 38-44 (human); assay: as above
T8 sequence (peptide): IFREDLD

[9] = biological target: T9, AMH truncated antigen 39-45 (human); assay: as above
T9 sequence (peptide): FREDLDW

[10] = biological target: T10, AMH truncated antigen 41-47 (human); assay: as above
T10 sequence (peptide): EDLDWPP

[11] = biological target: T11, AMH truncated antigen 41-50 (human); assay: as above
T11 sequence (peptide): EDLDWPPGSP

[12] = biological target: T12, AMH truncated antigen 41-51 (human); assay: as above
T12 sequence (peptide): EDLDWPPGSPQ

[13] = biological target: T13, AMH truncated antigen 41-55 (human); assay: as above
T13 sequence (peptide): EDLDWPPGSPQEPLC

[14] = biological target: T14, AMH truncated antigen 42-50 (human); assay: as above
T14 sequence (peptide): DLDWPPGSP

[15] = biological target: T15, AMH truncated antigen 42-51 (human); assay: as above
T15 sequence (peptide): DLDWPPGSPQ

[16] = biological target: T16, AMH truncated antigen 61-75 (human); assay: as above
T16 sequence (peptide): GDSNGSSSPLRVVGA

[17] = biological target: T17, AMH3647-14 (Little mole rat sequence) (Little mole rat); assay: as above
T17 sequence (peptide): GLIFLQDGMWSP

[18] = biological target: T18, AMH3647-21 (Sheep sequence) (Sheep); assay: as above
T18 sequence (peptide): TLIFQQGWDWPL

[19] = biological target: T19, AMH3647-26 (Monkey sequence) (Monkey); assay: as above
T19 sequence (peptide): GLIFREDLGWPP

[20] = biological target: T20, AMH3647-5 (Diademed Sifaka sequence) (Diademed Sifaka); assay: as above
T20 sequence (peptide): GLIFHEDWDWPP

[21] = biological target: T21, human AMH36-47 short peptide, mutation site 37 (human); assay: as above
T21 peptide: GAIFREDLDWPP
Protocol: as §1, with “mutations” for “mutations (see Table 6 for each synthesized sequence)”, “follows: a value lower than” for “follows:”, “indicated the corresponding amino acid” for “or more, which represented that there”, “a key amino acid, and the mutation has a great impact on the reaction of antibody.” for “cross-reaction.”

[22] = biological target: T22, human AMH36-47 short peptide, mutation site 38 (human); assay: as above
T22 peptide: GLAFREDLDWPP
Protocol: as §1, with “mutations” for “mutations (see Table 6 for each synthesized sequence)”, “follows: a value lower than” for “follows:”, “indicated the corresponding amino acid” for “or more, which represented that there”, “a key amino acid, and the mutation has a great impact on the reaction of antibody.” for “cross-reaction.”

[23] = biological target: T23, human AMH36-47 short peptide, mutation site 40 (human); assay: as above
T23 peptide: GLIFAEDLDWPP
Protocol: as §1, with “mutations” for “mutations (see Table 6 for each synthesized sequence)”, “follows: a value lower than” for “follows:”, “indicated the corresponding amino acid” for “or more, which represented that there”, “a key amino acid, and the mutation has a great impact on the reaction of antibody.” for “cross-reaction.”

[24] = biological target: T24, human AMH36-47 short peptide, mutation site 41 (human); assay: as above
T24 peptide: GLIFRADLDWPP
Protocol: as §1, with “mutations” for “mutations (see Table 6 for each synthesized sequence)”, “follows: a value lower than” for “follows:”, “indicated the corresponding amino acid” for “or more, which represented that there”, “a key amino acid, and the mutation has a great impact on the reaction of antibody.” for “cross-reaction.”

[25] = biological target: T25, human AMH36-47 short peptide, mutation site 43 (human); assay: as above
T25 peptide: GLIFREDADWPP
Protocol: as §1, with “mutations” for “mutations (see Table 6 for each synthesized sequence)”, “follows: a value lower than” for “follows:”, “indicated the corresponding amino acid” for “or more, which represented that there”, “a key amino acid, and the mutation has a great impact on the reaction of antibody.” for “cross-reaction.”

[26] = biological target: T26, human AMH36-47 short peptide, mutation site 44 (human); assay: as above
T26 peptide: GLIFREDLAWPP
Protocol: as §1, with “mutations” for “mutations (see Table 6 for each synthesized sequence)”, “follows: a value lower than” for “follows:”, “indicated the corresponding amino acid” for “or more, which represented that there”, “a key amino acid, and the mutation has a great impact on the reaction of antibody.” for “cross-reaction.”

[27] = biological target: T27, human AMH36-47 short peptide, mutation site 46 (human); assay: as above
T27 peptide: GLIFREDLDWAP
Protocol: as §1, with “mutations” for “mutations (see Table 6 for each synthesized sequence)”, “follows: a value lower than” for “follows:”, “indicated the corresponding amino acid” for “or more, which represented that there”, “a key amino acid, and the mutation has a great impact on the reaction of antibody.” for “cross-reaction.”

B1: monoclonal antibody C9F2-2 (antibody, V domains shown)
VH: EVQLVESGGGLVKPGGSLKLSCAASGFAFSTYDMSWVRQTPEKRLEWVAYISPGGGATYYPDTVKGRFTISRDNAKNTLYLQMTSLKSEDTAMYYCAGRRDYYGMDYWGQGTSVTVSS
VL: DVVMTQTPLSLPVSLGDQASISCRSSQSLVHSNGNTYLHWYLQKPGQSPKLLIYKVSNRFSGVPDRFSGSGSGTDFTLKISRVEAEDLGVYFCSQSTHVPWTFGGGTKLEIK
notes: Mouse hybridoma antibody purified from ascites; the tie is indirect; also called hybridoma CCTCC NO: C2018183
binding result [1]: no binding (tested: 50 ug/ml peptide) | binding result [2]: no binding (tested: 50 ug/ml peptide) | binding result [3]: no binding (tested: 50 ug/ml peptide) | binding result [4]: no binding (tested: 50 ug/ml peptide) | percent inhibition [5]: 38% | percent inhibition [6]: 32% | percent inhibition [7]: 57% | percent inhibition [8]: 33% | percent inhibition [9]: 68% | percent inhibition [10]: 64% | percent inhibition [11]: 65% | percent inhibition [12]: 71% | percent inhibition [13]: 68% | percent inhibition [14]: 57% | percent inhibition [15]: 60% | percent inhibition [16]: 35% | percent inhibition [17]: 29% | percent inhibition [18]: 10% | percent inhibition [19]: 61% | percent inhibition [20]: 32% | percent inhibition [21]: 97% | percent inhibition [22]: 96% | percent inhibition [23]: 88% | percent inhibition [24]: 7% | percent inhibition [25]: 94% | percent inhibition [26]: 64% | percent inhibition [27]: 99%
